# Experimental data published in patent US20230151111A1 (AKESO BIOPHARMA, published 2023).
# T1: CD73 on cell membrane surface (MDA-MB-231, U87-MG) (human, UniProt P21589 27-549)
# T1 construct: whole, on cells; also called NT5E
# T1 sequence (looked up): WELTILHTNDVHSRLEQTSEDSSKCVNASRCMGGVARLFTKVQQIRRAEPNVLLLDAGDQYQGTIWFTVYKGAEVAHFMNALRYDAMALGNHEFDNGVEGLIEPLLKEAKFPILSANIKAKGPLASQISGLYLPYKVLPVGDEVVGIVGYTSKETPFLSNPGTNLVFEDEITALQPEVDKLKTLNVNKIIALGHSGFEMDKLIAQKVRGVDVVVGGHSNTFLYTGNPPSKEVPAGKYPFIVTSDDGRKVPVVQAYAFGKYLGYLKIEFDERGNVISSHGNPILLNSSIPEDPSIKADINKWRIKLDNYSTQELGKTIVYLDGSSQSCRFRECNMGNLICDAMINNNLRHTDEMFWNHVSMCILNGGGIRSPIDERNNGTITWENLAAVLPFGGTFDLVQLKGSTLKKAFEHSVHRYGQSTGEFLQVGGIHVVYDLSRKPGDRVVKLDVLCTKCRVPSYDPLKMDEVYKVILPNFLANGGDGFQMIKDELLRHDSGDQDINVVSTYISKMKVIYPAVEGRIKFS
# T2: human NT5E-Biotin (human, UniProt P21589 27-552, limits assumed, biotin label, site not stated)
# T2 construct: Captured on streptavidin-coated plates; also called human NTSE-Biotin
# T2 sequence (looked up): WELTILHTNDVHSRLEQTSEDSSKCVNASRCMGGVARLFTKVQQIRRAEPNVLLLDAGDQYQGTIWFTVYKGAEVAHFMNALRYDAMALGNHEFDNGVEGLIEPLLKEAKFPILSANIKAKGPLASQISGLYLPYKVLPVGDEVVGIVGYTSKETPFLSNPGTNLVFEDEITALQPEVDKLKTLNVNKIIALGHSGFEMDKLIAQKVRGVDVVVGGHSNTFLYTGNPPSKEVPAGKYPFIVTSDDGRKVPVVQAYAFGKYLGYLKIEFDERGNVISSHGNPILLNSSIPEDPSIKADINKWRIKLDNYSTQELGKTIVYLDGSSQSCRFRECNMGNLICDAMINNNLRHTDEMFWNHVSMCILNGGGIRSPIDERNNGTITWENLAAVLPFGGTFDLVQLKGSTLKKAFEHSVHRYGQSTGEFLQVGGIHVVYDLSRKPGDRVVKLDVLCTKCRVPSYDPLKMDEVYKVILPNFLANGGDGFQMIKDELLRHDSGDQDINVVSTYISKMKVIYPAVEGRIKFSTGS
# Experiments:
# [1] = biological target: T1, CD73 on cell membrane surface …; assay: flow cytometry, MDA-MB-231 cells; antibody 11.11 nM
# Description: (§1) MDA-MB-231 cells in logarithmic phase were digested with conventional trypsin and transferred to a 1.5 mL centrifuge tube at 3×10⁵ cells/tube. 500 μL of PBSA was added, and the mixture was centrifuged at 5600 rpm for 5 min to remove the supernatant. […] The system was mixed gently and uniformly, and then was incubated on ice for 1 h. Then 500 μL of PBSA was added, and the mixture was centrifuged at 5600 rpm for 5 min to remove the supernatant. […] 500 μL of PBSA was added, and the mixture was centrifuged at 5600 rpm for 5 min to remove the supernatant. At last, 200 μL of PBSA was added to resuspend cell precipitates, and the mixture was transferred to a flow tube for FACSCalibur detection.
# [2] = biological target: T1, CD73 on cell membrane surface …; assay: cell-based or functional assay
# [3] = biological target: T1, CD73 on cell membrane surface …; assay: flow cytometry, MDA-MB-231 cells; antibody 0.05 nM
# Description: as §1
# [4] = biological target: T1, CD73 on cell membrane surface …; assay: flow cytometry, MDA-MB-231 cells; antibody 100.00 nM
# Description: as §1
# [5] = biological target: T1, CD73 on cell membrane surface …; assay: flow cytometry, MDA-MB-231 cells; antibody 33.33 nM
# Description: as §1
# [6] = biological target: T1, CD73 on cell membrane surface …; assay: flow cytometry, MDA-MB-231 cells; antibody 3.70 nM
# Description: as §1
# [7] = biological target: T1, CD73 on cell membrane surface …; assay: flow cytometry, MDA-MB-231 cells; antibody 1.23 nM
# Description: as §1
# [8] = biological target: T1, CD73 on cell membrane surface …; assay: flow cytometry, MDA-MB-231 cells; antibody 0.14 nM
# Description: as §1
# [9] = biological target: T1, CD73 on cell membrane surface …; assay: flow cytometry, MDA-MB-231 cells
# Description: as §1
# [10] = biological target: T1, CD73 on cell membrane surface …; assay: flow cytometry, MDA-MB-231 cells; antibody 0.41 nM
# Description: as §1
# [11] = biological target: T3, PD-1 on 293T-PD1 cell surface (human, UniProt Q15116 25-288); assay: flow cytometry, 293T-PD1 cells; antibody 33.33 nM
# T3 construct: whole, on cells
# T3 sequence (Q15116 25-288): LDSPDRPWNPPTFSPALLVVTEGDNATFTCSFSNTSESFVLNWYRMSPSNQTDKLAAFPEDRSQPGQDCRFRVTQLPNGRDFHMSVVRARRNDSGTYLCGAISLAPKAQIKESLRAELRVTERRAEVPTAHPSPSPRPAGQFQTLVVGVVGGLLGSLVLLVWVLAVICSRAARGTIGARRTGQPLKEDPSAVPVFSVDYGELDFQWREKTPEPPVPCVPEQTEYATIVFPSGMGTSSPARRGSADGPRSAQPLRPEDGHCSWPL
# Description: as §1, with “500” for “MDA-MB-231 cells in logarithmic phase were digested with conventional trypsin and transferred to a 1.5 mL centrifuge tube at 3×10⁵ cells/tube. 500”
# [12] = biological target: T3, PD-1 on 293T-PD1 cell surface; assay: flow cytometry, 293T-PD1 cells
# Description: as §1, with “500” for “MDA-MB-231 cells in logarithmic phase were digested with conventional trypsin and transferred to a 1.5 mL centrifuge tube at 3×10⁵ cells/tube. 500”
# [13] = biological target: T3, PD-1 on 293T-PD1 cell surface; assay: flow cytometry, 293T-PD1 cells; antibody 3.70 nM
# Description: as §1, with “500” for “MDA-MB-231 cells in logarithmic phase were digested with conventional trypsin and transferred to a 1.5 mL centrifuge tube at 3×10⁵ cells/tube. 500”
# [14] = biological target: T3, PD-1 on 293T-PD1 cell surface; assay: flow cytometry, 293T-PD1 cells; antibody 100.00 nM
# Description: as §1, with “500” for “MDA-MB-231 cells in logarithmic phase were digested with conventional trypsin and transferred to a 1.5 mL centrifuge tube at 3×10⁵ cells/tube. 500”
# human PD-1-mFc-biotin [15] = biological target: T4, human PD-1-mFc-biotin (human, UniProt Q15116 25-170, limits assumed, biotin label, site not stated); assay: competitive ELISA, competitor coated PD-L1-mFc; antibody 5 ug/mL diluted 1:3
# T4 sequence (Q15116 other isoform, or with tags, fused parts or gaps limits assumed): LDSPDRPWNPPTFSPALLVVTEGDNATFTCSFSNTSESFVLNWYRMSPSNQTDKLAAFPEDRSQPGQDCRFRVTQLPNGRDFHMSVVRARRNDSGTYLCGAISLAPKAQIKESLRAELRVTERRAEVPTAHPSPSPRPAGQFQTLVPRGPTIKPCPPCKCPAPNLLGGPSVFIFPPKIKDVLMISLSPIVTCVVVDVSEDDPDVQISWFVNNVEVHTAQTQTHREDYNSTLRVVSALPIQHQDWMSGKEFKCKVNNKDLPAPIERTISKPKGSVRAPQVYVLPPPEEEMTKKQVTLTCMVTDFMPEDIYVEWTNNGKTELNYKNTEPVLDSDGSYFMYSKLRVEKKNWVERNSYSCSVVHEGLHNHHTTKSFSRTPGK
# Description: (§2) After incubation, the microplate was blocked with a PBS solution containing 1% BSA at 37° C. for 2 h. After blocking, the plate was washed three times and dried. The antibody was serially diluted to 7 concentrations in a gradient ratio of 1:3 on a dilution plate with 10 μg/mL as the starting concentration, and a blank control was set. […] Then the mixture after reaction was added to the coated microplate, and the microplate was incubated for at 37° C. for 30 min. After incubation, the plate was washed three times with PBST and dried. SA-HRP (KPL, 14-30-00) working solution was added, and the plate was incubated at 37° C. for 30 min. After incubation, the plate was washed four times and patted dry. Then TMB (Neogen, 308177) was added in the dark for chromogenesis for 5 min, and a stop solution was added to terminate chromogenic reaction. Then the microplate was put into a microplate reader immediately, and the OD value of each well in the microplate was read at 450 nm. The data were analyzed and processed by SoftMax Pro 6.2.1.
# [16] = biological target: T3, PD-1 on 293T-PD1 cell surface; assay: flow cytometry, 293T-PD1 cells; antibody 1.23 nM
# Description: as §1, with “500” for “MDA-MB-231 cells in logarithmic phase were digested with conventional trypsin and transferred to a 1.5 mL centrifuge tube at 3×10⁵ cells/tube. 500”
# [17] = biological target: T3, PD-1 on 293T-PD1 cell surface; assay: flow cytometry, 293T-PD1 cells; antibody 0.14 nM
# Description: as §1, with “500” for “MDA-MB-231 cells in logarithmic phase were digested with conventional trypsin and transferred to a 1.5 mL centrifuge tube at 3×10⁵ cells/tube. 500”
# PD-1-mFc [18] = biological target: T5, PD-1-mFc (human, UniProt Q15116 25-170, limits assumed); assay: ELISA, PD-1-mFc coated
# T5 construct: also called human PD-1-mFc
# T5 sequence (Q15116 other isoform, or with tags, fused parts or gaps limits assumed): as above
# Description: (§3) A microplate was coated with PD-1-mFc at 0.5 μg/mL and incubated at 4° C. overnight. Then the microplate coated with antigens was washed once with PBST, and then blocked with a PBS solution containing 1% BSA as blocking solution at 37° C. for 2 h. After blocking, the microplate was washed 3 times with PBST. The microplate containing the test antibodies was incubated at 37° C. for 30 min, and then washed 3 times with PBST. […] After incubation, the plate was washed 4 times with PBST, TMB (Neogen, 308177) was added in the dark for chromogenesis for 5 min, and then a stop solution was added to terminate chromogenic reaction. The microplate was put into a microplate reader immediately, and the OD value of each well in the microplate was read at 450 nm. The data were analyzed and processed by SoftMax Pro 6.2.1,
# [19] = biological target: T3, PD-1 on 293T-PD1 cell surface; assay: flow cytometry, 293T-PD1 cells; antibody 0.05 nM
# Description: as §1, with “500” for “MDA-MB-231 cells in logarithmic phase were digested with conventional trypsin and transferred to a 1.5 mL centrifuge tube at 3×10⁵ cells/tube. 500”
# human NT5E-Biotin = biological target: T2, human NT5E-Biotin; assay: ELISA, NT5E-biotin on streptavidin
# Description: A microplate was coated with streptavidin at 2 μg/mL and then incubated at 4° C. overnight. After incubation, the microplate coated with streptavidin was washed once with PBST, and blocked with a PBS solution containing 1% BSA as a microplate blocking solution at 37° C. for 2 h. After blocking, the microplate was washed 3 times with PBST. Then, 0.5 μg/mL antigen human NTSE-Biotin was added and incubated at 37° C. for 30 min. Then, the plate was washed 3 times with PBST. The antibodies serially diluted with PBST solution (the dilution gradients for the antibody are shown in Table 3) were added to wells of the microplate. The microplate containing the test antibodies was incubated at 37° C. for 30 min, and then washed 3 times with PBST. […] After incubation, the plate was washed 4 times with PBST, TMB (Neogen, 308177) was added in the dark for chromogenesis for 5 min, and then a stop solution was added to terminate chromogenic reaction. The microplate was put into a microplate reader immediately, and the OD value of each well in the microplate was read at 450 nm. The data were analyzed and processed by SoftMax Pro 6.2.1.
# [20] = biological target: T3, PD-1 on 293T-PD1 cell surface; assay: flow cytometry, 293T-PD1 cells; antibody 11.11 nM
# Description: as §1, with “500” for “MDA-MB-231 cells in logarithmic phase were digested with conventional trypsin and transferred to a 1.5 mL centrifuge tube at 3×10⁵ cells/tube. 500”
# [21] = biological target: T3, PD-1 on 293T-PD1 cell surface; assay: flow cytometry, 293T-PD1 cells; antibody 0.41 nM
# Description: as §1, with “500” for “MDA-MB-231 cells in logarithmic phase were digested with conventional trypsin and transferred to a 1.5 mL centrifuge tube at 3×10⁵ cells/tube. 500”
# human PD-1-mFc-biotin [22] = biological target: T4, human PD-1-mFc-biotin; assay: competitive ELISA, blocking of PD-1-mFc-biotin binding to coated PD-L1-mFc
# Description: as §2
# PD-1-mFc [23] = biological target: T5, PD-1-mFc; assay: ELISA, PD-1-mFc coated; antibody 1 ug/mL diluted 1:27
# Description: as §3
FACS signal [11],EC50 [12] [pM],FACS signal [13],FACS signal [14],FACS signal [16],FACS signal [17],EC50 (PD-1-mFc [18]) [pM],FACS signal [19],EC50 (human NT5E-Biotin) [pM],FACS signal [20],FACS signal [21],EC50 (human PD-1-mFc-biotin [22]) [pM],Binder,also measured
,,,,,,,,,,,,"MEDI9447 (antibody, V domains shown) VH: EVQLLESGGGLVQPGGSLRLSCAASGFTFSSYAYSWVRQAPGKGLEWVSAISGSGGRTYYADSVKGRFTISRDNSKNTLYLQMNSLRAEDTAVYYCARLGYGRVDEWGRGTLVTVSS VL: QSVLTQPPSASGTPGQRVTISCSGSLSNIGRNPVNWYQQLPGTAPKLLIYLDNLRLSGVPDRFSGSKSGTSASLAISGLQSEDEADYYCATWDDSHPGWTFGGGTKLTVLG","FACS signal [1]: 829; IC50 (nM), inhibition of enzyme activity of CD73 on U87-MG cell membrane surface [2]: 0.119 nM; FACS signal [3]: 32.6; FACS signal [4]: 878; FACS signal [5]: 930; FACS signal [6]: 698; FACS signal [7]: 389; FACS signal [8]: 64.4; EC50 [9]: 1590 pM; FACS signal [10]: 158"
405,1080,404,301,218,43,78,23.4,230,426,108,1330,"P1D7V02R (bispecific antibody, human IgG1, kappa, Morrison form IgG-scFv) heavy: not shown light: DIQMTQSPSSMSASVGDRVTFTCRASQDINTYLSWFQQKPGKSPKTLIYRANRLVSGVPSRFSGSGSGQDYTLTISSLQPEDMATYYCLQYDEFPLTFGAGTKLELKRTVAAPSVFIFPPSDEQLKSGTASVVCLLNNFYPREAKVQWKVDNALQSGNSQESVTEQDSKDSTYSLSSTLTLSKADYEKHKVYACEVTHQGLSSPVTKSFNRGEC",OD450 (human PD-1-mFc-biotin [15]): 0.051 OD
400,1570,467,361,289,52.4,89,24.8,439,1280,113,1340,"P1D7V04R (bispecific antibody, human IgG1, kappa, Morrison form IgG-scFv) heavy: not shown light: DIQMTQSPSSMSASVGDRVTFTCRASQDINTYLSWFQQKPGKSPKTLIYRANRLVSGVPSRFSGSGSGQDYTLTISSLQPEDMATYYCLQYDEFPLTFGAGTKLELKRTVAAPSVFIFPPSDEQLKSGTASVVCLLNNFYPREAKVQWKVDNALQSGNSQESVTEQDSKDSTYSLSSTLTLSKADYEKHKVYACEVTHQGLSSPVTKSFNRGEC",OD450 (PD-1-mFc [23]): 1.66 OD
